# Values of other authors in paper PMC10361719.
# Molecular target: Gag (Human immunodeficiency virus 1) (UniProt O93182)
# Sequence of Gag (O93182 2-500): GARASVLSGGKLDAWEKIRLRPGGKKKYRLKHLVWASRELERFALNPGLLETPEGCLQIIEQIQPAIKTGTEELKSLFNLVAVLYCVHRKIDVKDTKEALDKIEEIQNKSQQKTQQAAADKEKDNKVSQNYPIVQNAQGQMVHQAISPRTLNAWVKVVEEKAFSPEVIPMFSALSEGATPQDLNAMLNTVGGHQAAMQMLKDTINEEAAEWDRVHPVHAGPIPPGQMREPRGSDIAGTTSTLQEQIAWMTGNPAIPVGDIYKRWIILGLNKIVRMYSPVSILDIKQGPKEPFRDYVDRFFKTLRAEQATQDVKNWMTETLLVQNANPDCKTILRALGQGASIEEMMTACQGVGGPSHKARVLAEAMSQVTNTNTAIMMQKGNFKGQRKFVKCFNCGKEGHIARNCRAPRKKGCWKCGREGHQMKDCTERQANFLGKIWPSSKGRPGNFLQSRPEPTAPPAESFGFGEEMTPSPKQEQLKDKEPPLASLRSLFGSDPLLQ
substance,measurement,value
Gag (from UniProt O93182),Kd,5.5 µM
